Molecular target: T1, rhB7-H6 biotinylated Fc fusion protein (human, UniProt Q68D85 25-262, biotin)
T1 construct: B7-H6 (natural cytotoxicity triggering receptor 3 ligand 1), human; supplier named under library sorting; the BLI methods say only 'B7-H6'; source: bought: R&D Systems
T1 sequence (looked up): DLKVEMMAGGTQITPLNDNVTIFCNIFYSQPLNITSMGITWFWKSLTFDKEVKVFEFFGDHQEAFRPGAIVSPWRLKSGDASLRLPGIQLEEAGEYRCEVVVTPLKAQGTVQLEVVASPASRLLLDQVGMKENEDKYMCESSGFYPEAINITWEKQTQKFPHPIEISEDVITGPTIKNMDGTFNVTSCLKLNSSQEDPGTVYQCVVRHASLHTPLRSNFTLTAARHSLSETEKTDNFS
Assay: BLI; competition/epitope binning: antibodies coupled on activated ARG2G biosensors, first association with NKp30 3 min, second association 3 min with B7-H6 or the other NKp30 binders; both orientations, 25 C
Conditions: both partners purified

B1: Recombinant human His-tagged ECD of NKp30 (receptor, UniProt O14931 19-135, looked up)
chain: LWVSQPPEIRTLEGSSAFLPCSFNASQGRLAIGSVTWFRDEVVPGKEVRNGTPEFRGRLAPLASSRFLHDHQAELHIRDVRGHDASIYVCRVEVLGLGVGTGNGTRLVVEKEHPQLG
notes: NKp30 (natural cytotoxicity triggering receptor 3), human, extracellular domain; supplier named under library sorting; also called rhNKp30; NKp30 His-tagged protein; source: bought: ACROBiosystems
B1: binds.
